The values below come from US20250101083A1 (XIAMEN UNIVERSITY, published 2025).

Assay [1] concerns the target T1, pTT5hIgG1-S4 fusion protein (hepatitis B virus (HBV subtype B)).
T1 construct: also called S4 (Cter); Cter
The experiment in a line: ELISA, fusion protein coated at 1 µg/mL, antibody at 1 µg/ml.

Assay [2] has as its target T2, pTT5hIgG1-S5 fusion protein (hepatitis B virus (HBV subtype B)).
T2 construct: also called S5 (Loop2-Cter); Loop2-Cter
The description is as above.

B1: 125smIgG2 (Fc fusion)
chain: QLQLVESGGGLVQAGGSLRLSCAASGGTISAYAMGWFRQAPGKDREFVAGISWTTSSAYYTDSVKGRFTISRDFAKNTVYLQMNSLKPEDTAVYYCNDRVSDTVGFGSWGQGTQVTVSSPRVPITQNPCPPLKECPPCAAPDLLGGPSVFIFPPKIKDVLMISLSPMVTCVVVDVSEDDPDVQISWFVNNVEVHTAQTQTHREDYNSTLRVVSALPIQHQDWMSGKEFKCKVNNRALPSPIEKTISKPRGPVRAPQVYVLPPPAEEMTKKEFSLTCMITGFLPAEIAVDWTSNGRTEQNYKNTATVLDSDGSYFMYSKLRVQKSTWERGSLFACSVVHEGLHNHLTTKTISRSLGK
Turning to B1, the binding result in assay [1] and in assay [2] was “binds” throughout.
